{"source": "paper PMC10367427", "about": "(Frontiers in Immunology, 2023)", "biological_target": "T1, SARS-CoV-2 full-length nucleocapsid protein (NP) (SARS-CoV-2, reference (Wuhan-Hu-1; Gene …, UniProt P0DTC9)", "T1 construct": "also called full-length NP", "assay": "ELISA", "conditions": "both partners purified"}
{"binder": "NbON10-NanoLuc fusion protein (VHH) VHH: QVQLVQSGGGLVQPGGSLRLSCAASGLRLGYYTIAWFRQAPGKEREGISCISRSDGSTYYADSVKGRFTISTDNAENTVYLQMNSLKPEDTAVYYCAADFVPASHCAVANTRGYDYWGQGTQVTVSS", "values": [{"measurement": "binding result", "value": "binds"}]}
